The values below come from patent US20190248900A1 (Y BIOLOGICS, published 2019).

Substitutions are numbered along the chain they refer to.

The target in one assay is T1, M7.
T1 construct: also called PD1 mutant M7
The experiment in a line: scFv-phage ELISA. For orientation: ELISA stands for enzyme-linked immunosorbent assay.

Another assay addresses T2, M1-1.
T2 construct: also called PD1 mutant M1-1
The experiment in a line: scFv-phage ELISA.

The target in another assay is T3, M5-2.
T3 construct: also called PD1 mutant M5-2
The experiment in a line: scFv-phage ELISA.

For another assay, the target named is T4, M6.
T4 construct: also called PD1 mutant M6
Kind of assay: scFv-phage ELISA.

Another assay deals with T5, M11.
T5 construct: also called PD1 mutant M11
The experiment in a line: scFv-phage ELISA.

For a further assay, the target named is T6, M2.
T6 construct: also called PD1 mutant M2
The experiment in a line: scFv-phage ELISA.

The target in a further assay is T7, M14.
T7 construct: also called PD1 mutant M14
Kind of assay: scFv-phage ELISA.

In another assay the target is T8, M10.
T8 construct: also called PD1 mutant M10
The experiment in a line: scFv-phage ELISA.

In the next assay the target is T9, M7-2.
T9 construct: also called PD1 mutant M7-2
The experiment in a line: scFv-phage ELISA.

The next assay concerns the target T10, M12.
T10 construct: also called PD1 mutant M12
Kind of assay: scFv-phage ELISA.

The next assay has as its target T11, M5.
T11 construct: also called PD1 mutant M5
Kind of assay: scFv-phage ELISA.

The target of another assay is T12, M4.
T12 construct: also called PD1 mutant M4
The experiment in a line: scFv-phage ELISA.

Another assay has as its target T13, M9.
T13 construct: also called PD1 mutant M9
The experiment in a line: scFv-phage ELISA.

The target in another assay is T14, M8.
T14 construct: also called PD1 mutant M8
The experiment in a line: scFv-phage ELISA.

Another assay addresses T15, M5-1.
T15 construct: also called PD1 mutant M5-1
Kind of assay: scFv-phage ELISA.

Another assay addresses T16, M7-1.
T16 construct: also called PD1 mutant M7-1
Kind of assay: scFv-phage ELISA.

A further assay has as its target T17, M13.
T17 construct: also called PD1 mutant M13
The experiment in a line: scFv-phage ELISA.

The target in a further assay is T18, M3.
T18 construct: also called PD1 mutant M3
Kind of assay: scFv-phage ELISA.

The next assay addresses T19, M1.
T19 construct: also called PD1 mutant M1
Kind of assay: scFv-phage ELISA.

The target of another assay is T20, M1-2.
T20 construct: also called PD1 mutant M1-2
Kind of assay: scFv-phage ELISA.

The target of the next assay is T21, ITGA6-Fc.
T21 construct: Fc fusion
T21 sequence (P23229 whole entry, species assumed, looked up): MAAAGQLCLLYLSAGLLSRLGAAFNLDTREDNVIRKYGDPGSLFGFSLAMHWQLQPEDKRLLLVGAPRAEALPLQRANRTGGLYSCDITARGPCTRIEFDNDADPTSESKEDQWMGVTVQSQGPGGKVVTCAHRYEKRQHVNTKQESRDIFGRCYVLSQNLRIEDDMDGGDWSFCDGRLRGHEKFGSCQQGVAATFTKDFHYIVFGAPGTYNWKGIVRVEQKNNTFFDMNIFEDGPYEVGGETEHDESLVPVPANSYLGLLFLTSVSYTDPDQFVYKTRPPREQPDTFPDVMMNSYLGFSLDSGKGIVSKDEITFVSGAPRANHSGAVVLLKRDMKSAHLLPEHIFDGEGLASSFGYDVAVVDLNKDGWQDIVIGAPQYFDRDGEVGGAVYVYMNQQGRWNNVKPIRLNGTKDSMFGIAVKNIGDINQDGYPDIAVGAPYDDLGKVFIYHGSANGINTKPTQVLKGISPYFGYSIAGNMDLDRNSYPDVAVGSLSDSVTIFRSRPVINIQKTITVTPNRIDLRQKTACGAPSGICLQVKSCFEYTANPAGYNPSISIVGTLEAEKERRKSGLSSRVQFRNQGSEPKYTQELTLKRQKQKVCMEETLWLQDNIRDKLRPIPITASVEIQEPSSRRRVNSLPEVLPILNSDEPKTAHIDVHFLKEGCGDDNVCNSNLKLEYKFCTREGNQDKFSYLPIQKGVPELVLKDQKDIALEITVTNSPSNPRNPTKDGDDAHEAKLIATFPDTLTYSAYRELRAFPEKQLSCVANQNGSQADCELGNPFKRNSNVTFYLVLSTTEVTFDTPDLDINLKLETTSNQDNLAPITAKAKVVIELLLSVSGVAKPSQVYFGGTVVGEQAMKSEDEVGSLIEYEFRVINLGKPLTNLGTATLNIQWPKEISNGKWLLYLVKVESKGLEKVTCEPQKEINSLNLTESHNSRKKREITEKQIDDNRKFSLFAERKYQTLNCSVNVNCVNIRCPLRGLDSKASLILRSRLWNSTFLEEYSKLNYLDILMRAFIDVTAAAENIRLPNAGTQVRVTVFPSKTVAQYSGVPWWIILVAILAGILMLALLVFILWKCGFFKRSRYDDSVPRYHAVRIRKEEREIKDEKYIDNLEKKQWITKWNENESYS
The experiment in a line: scFv-phage ELISA.

In a further assay the target is T22, M2-1.
T22 construct: also called PD1 mutant M2-1
The experiment in a line: scFv-phage ELISA.

A further assay deals with T23, M2-2.
T23 construct: also called PD1 mutant M2-2
The experiment in a line: scFv-phage ELISA.

Assay [1] concerns the target human PD-1 (NM_005018.2) over-expressed on cells (human, UniProt Q15116 25-288). The experiment in a line: cell-based or functional assay.

human PD-1 (NM_005018.2) over-expressed on cells, sequence (Q15116 25-288): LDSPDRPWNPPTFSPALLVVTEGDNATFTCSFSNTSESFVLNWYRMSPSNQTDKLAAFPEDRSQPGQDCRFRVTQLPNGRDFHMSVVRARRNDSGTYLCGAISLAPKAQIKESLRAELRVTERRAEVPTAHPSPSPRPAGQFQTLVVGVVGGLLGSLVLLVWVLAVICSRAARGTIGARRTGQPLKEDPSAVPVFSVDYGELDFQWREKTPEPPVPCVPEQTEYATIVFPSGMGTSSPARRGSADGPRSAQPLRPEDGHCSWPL

B1: PD1-51D9 (antibody, V domains shown)
VH: QVQLVESGAEVKKPGASVKLSCKASGYTFSSYWMHWVRQAPGQRLEWMGEINPGNGHTNYNEKFKSRVTITVDKSASTAYMELSSLRSEDTAVYYCAREGDGSYWGYFDSWGQGTPITVSS
VL: DIVMTQTPLSLPVTPGEPASISCRSSQSLLHSNGNNYLDWYLQKPGQSPQLLIYLGSYRASGVPDRFSGSGSGTDFTLKISRVEAEDVGLYYCMQGLQIPSTFGPGTKVDIK
notes: scFv-phage in the screening ELISA; whole IgG in the other assays
For B1, the OD490 with M7 amounted to 0.1; with M1-1 it was 0.2; with M5-2, 0.6; with M6, 0.3; with M11 it was 0.1; with M2, 0.1. Besides, the OD490 amounted to 0.8 in the assay with M14; 0.1 with M10; 0.3 with M7-2; 0.3 with M12; 0.1 in the assay with M5; 1.1 with M4. For the same molecule, the OD490 was 0.3 with M9; 0.1 in the assay with M8; 0.1 in the assay with M5-1; 0.1 in the assay with M7-1; 0.7 with M13; 0.3 with M3. Also, the OD490 was found to be 0.2 with M1; 0.4 in the assay with M1-2; 0.1 with ITGA6-Fc; 0.4 in the assay with M2-1; 0.6 in the assay with M2-2.

B2: PD1-72D10 (antibody, V domains shown)
VH: QVQLVESGGGVVQPGRSLRLSCAASGFTFSSYAMHWVRQAPGKGLEWVAVISYDGSNKYYADSVKGRFTISRDNSKNTLYLQMNSLRAEDTAVYYCTTTTFDSWGQGTLVTVSS
VL: DIVMTQTPLSLPVTPGEAASISCRSSQSLLDSEDGNTYLDWYLQKPGQSPQLLIYTLSHRASGVPDRFSGSGSGTDFTLKISRVEAEDVGIYYCMQRVEFPFTFGQGTKLEIK
For the molecule B2, in assay [1], the “EC50 [nM], PD1/PD-L1 blockade bioassay” value was found to be 1.21 nM.

B3: PD1-49A2(A/1H4) (antibody, V domains shown)
VH: B2 VH with S30P, S31I, S56A, N57H
VL: B2 VL with T7S, V89S, F102Y, E111D
Turning to B3, the “EC50 [nM], PD1/PD-L1 blockade bioassay” value in assay [1] was 0.84 nM.

B4: PD1-74H12 (antibody, V domains shown)
VH: B2 VH with T78M, Q82E, T97V, T98P, D102E, S103Y, T108S, L109Q
VL: DIVMTQTPLSLSVTPGEPASISCRSSQSLLDSDDGNTYLDWYLQKPGQSPQLLIYTLSHRASGVPDRFSGRGSHTDFTLTISSVEAEDVGVYYCMQRIHFPLTFGQGTRLEIK
With B4, the “EC50 [nM], PD1/PD-L1 blockade bioassay” value in [1] is 0.98 nM.

B5: PD1-49A2(A/1F12) (antibody, V domains shown)
VH: B2 VH with S30R, S31N, S56Q, N57H, G105S
VL: B2 VL with L9H, A18P, S62L, V89S, V98I, F102Y
In the case of B5, the “EC50 [nM], PD1/PD-L1 blockade bioassay” value in assay [1] worked out at 1.03 nM.

B6: PD1-45D6(A/4C1) (antibody, V domains shown)
VH: B2 VH with S56N, N57D, T97V, T98P, D102E, S103Y
VL: B2 VL with A18P, E33D, E111D
For B6, the “EC50 [nM], PD1/PD-L1 blockade bioassay” value in [1] came out at 1.76 nM.

B7: PD1-49A2(A/2A11) (antibody, V domains shown)
VH: B2 VH with S30R, S56Q, N57D
VL: DIVMTQTPLSLPVTPGEPASISCRSSQSLFDSDDGNTYLDWYLQKPGQSPRLLIYTLSHRALGVPDRFSGSGSGTDFTLKISRVAAEDVGLYYCLQRMGFPYTFGQGTKLEIK
Turning to B7, in assay [1], the “EC50 [nM], PD1/PD-L1 blockade bioassay” value is 0.79 nM.

B8: PD1-74A01 (antibody, V domains shown)
VH: B2 VH with A88S, T97V, T98P, D102E, S103Y, T108S, L109Q
VL: B2 VL with A18P, S32R, E33G, D34G, N36H, V98K, F102L, Q106P
Take B8: in [1], the “EC50 [nM], PD1/PD-L1 blockade bioassay” value turned out to be 1.01 nM.

B9: PD1-75C10 (antibody, V domains shown)
VH: B2 VH with T97V, T98P, D102E, S103Y, T108S, L109Q
VL: B2 VL with S82T, I91V, V98I, F102Y
Consider B9, for which the “EC50 [nM], PD1/PD-L1 blockade bioassay” value in assay [1] was found to be 0.81 nM.

B10: PD1-45D6(A/3H6) (antibody, V domains shown)
VH: B2 VH with A40V, S56N, N57D, T97V, T98P, D102E, S103Y, T108S, L109Q
VL: B2 VL with I91V
B10: the “EC50 [nM], PD1/PD-L1 blockade bioassay” value in assay [1] was found to be 1.49 nM.

B11: PD1-45D6(A/5B12) (antibody, V domains shown)
VH: B2 VH with S31V, S56N, N57D, T97V, T98P, D102E, S103Y
VL: B2 VL with L110V
Take B11: the “EC50 [nM], PD1/PD-L1 blockade bioassay” value in assay [1] amounted to 0.8 nM.

B12: PD1-45D6(A/4C9) (antibody, V domains shown)
VH: B2 VH with S56N, N57D, T97V, T98P, D102E, S103Y
VL: B2 VL with E85A
As to B12, the “EC50 [nM], PD1/PD-L1 blockade bioassay” value in assay [1] turned out to be 2.72 nM.

B13: PD1-74A11 (antibody, V domains shown)
VH: B2 VH with E6Q, T97A, T98R, S103Y, V110I
VL: B2 VL with A18P, L30F, E33D, H59Y, E85A, L110V, E111D
In the case of B13, in assay [1], the “EC50 [nM], PD1/PD-L1 blockade bioassay” value was 1.31 nM.

B14: PD1-45D6(A/3G1) (antibody, V domains shown)
VH: B2 VH with A40V, S56N, N57D, T97V, T98P, D102E, S103Y, T108S, L109Q
VL: B2 VL with A18P, K80E, I91V, E111D
As for B14, the “EC50 [nM], PD1/PD-L1 blockade bioassay” value in assay [1] stood at 0.98 nM.

B15: PD1-49A2(A/2B10) (antibody, V domains shown)
VH: B2 VH with S30L, S31V, N57H
VL: B2 VL with A18P, E33D, E85A, I91L, E111D
As for B15, in [1], the “EC50 [nM], PD1/PD-L1 blockade bioassay” value worked out at 0.65 nM.

B16: PD1-45D6(A/5A6) (antibody, V domains shown)
VH: B2 VH with S30R, S31L, Y53H, S56N, N57D, T97V, T98P, D102E, S103Y
VL: B2 VL with A18P, I91V, V98I, E99D, F102Y, E111D
Consider B16, for which, in assay [1], the “EC50 [nM], PD1/PD-L1 blockade bioassay” value was determined as 0.92 nM.

B17: PD1-45D6(A/4D4) (antibody, V domains shown)
VH: B2 VH with S56N, N57D, T97V, T98P, D102E, S103Y
VL: B2 VL with A18P, D76E, T78N, K80R, L110V, E111D
On to B17, for which the “EC50 [nM], PD1/PD-L1 blockade bioassay” value in assay [1] is 1.74 nM.

B18: PD1-45D6(A/3H4) (antibody, V domains shown)
VH: B2 VH with A40V, S56N, N57D, T97V, T98P, D102E, S103Y, T108S, L109Q
VL: B2 VL with A18P, L30F, E33D, P65S, V89S, E111D
On to B18, for which the “EC50 [nM], PD1/PD-L1 blockade bioassay” value in [1] was 1.67 nM.

B19: PD1-45D6(A/4H6) (antibody, V domains shown)
VH: B2 VH with S56N, N57D, T97V, T98P, D102E, S103Y
VL: B2 VL with A18P, L30F, E33D, I91L
For the molecule B19, the “EC50 [nM], PD1/PD-L1 blockade bioassay” value in [1] was determined as 1.19 nM.

B20: PD1-45D6(A/5H9) (antibody, V domains shown)
VH: B2 VH with S30W, S31T, S56N, N57D, T97V, T98P, D102E, S103Y
VL: B2 VL with A18P, E33D, P65S, K80E, I91V, V98R, E99D, L110V
Consider B20, for which the “EC50 [nM], PD1/PD-L1 blockade bioassay” value in assay [1] stood at 2 nM.

B21: PD1-45D6(A/5C8) (antibody, V domains shown)
VH: B2 VH with S30M, S31R, S56N, N57D, T97V, T98P, D102E, S103Y
VL: B2 VL with T7S, A18P, I91V, E111D
For B21, in [1], the “EC50 [nM], PD1/PD-L1 blockade bioassay” value amounted to 1.44 nM.
